Consider eight sequences from the supplement of paper PMC5998384.

The test system of data set [1] is HeLa Kyoto. Put plainly: melting temperature (median over replicates), in situ; higher = more thermally stable.
Data set [2] deals with HeLa Kyoto. The data set can be described thus: thermal stability score vs G1/S (z-score of summed log2 fold changes over temperatures); higher = more thermally stable than in G1/S.
Data set [3] relates to HeLa Kyoto. The data set can be described thus: solubility in G1/S (NP-40 vs SDS abundance) (log2 ratio); higher = more soluble. Conditions: cell cycle stage: G1/S.
For data set [4], the system named is HeLa Kyoto. Put plainly: solubility change mitosis vs G1/S (difference of NP-40 vs SDS log2 ratios) (log2 ratio difference); higher = more soluble in mitosis.
The mark [5] stands for this setting: cell cycle stage: early G1 (4.5 h after nocodazole release).
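Throughout, for melting temperature (median over replicates), in situ: HeLa Kyoto cells synchronized by double thymidine or nocodazole block, proteins quantified by TMT10plex mass spectrometry, three independent biological replicates.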
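Throughout, for solubility change mitosis vs G1/S (difference of NP-40 vs SDS log2 ratios): synchronized HeLa Kyoto cells (double thymidine block for G1/S, nocodazole release for mitosis), protein amounts in NP-40 versus SDS lysates quantified by mass spectrometry, three biological replicates.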
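Throughout, for solubility in G1/S (NP-40 vs SDS abundance): HeLa Kyoto cells arrested at G1/S by double thymidine block, proteins quantified by TMT10plex mass spectrometry in mild NP-40 versus SDS extracts, three biological replicates.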
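Throughout, for thermal stability score vs G1/S (z-score of summed log2 fold changes over temperatures): synchronized HeLa Kyoto cells, proteins quantified by TMT10plex mass spectrometry, three biological replicates, mitosis taken 0.5 h after nocodazole release, G1/S directly after double thymidine block.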

On to “MEKTELIQKAKLAEQAERYDDMATCMKAVTEQGAELSNEERNLLSVAYKNVVGGRRSAWRVISSIEQKTDTSDKKLQLIKDYREKVESELRSICTTVLELLDKYLIANATNPESKVFYLKMKGDYFRYLAEVACGDDRKQTIDNSQGAYQEAFDISKKEMQPTHPIRLGLALNFSVFYYEILNNPELACTLAKTAFDEAIAELDTLNEDSYKDSTLIMQLLRDNLTLWTSDSAGEECDAAEGAEN [YWHAQ]”, for which the melting temperature in the data set with HeLa Kyoto [1] (cell cycle stage: G1/S) is 51.4 °C; with HeLa Kyoto [1] (cell cycle stage: mitosis), 52 °C. Further, the values for the thermal stability score in the data set on HeLa Kyoto [2] (setting [5]) and in the data set with HeLa Kyoto [2] (cell cycle stage: mitosis) were 0.526 and 2.69, respectively. The “solubility in G1/S (log2)” value in the data set on HeLa Kyoto [3] amounted to 0.435. Besides, the “solubility change mitosis (log2)” value in the data set on HeLa Kyoto [4] stood at 0.372.
Regarding “MEKTLETVPLERKKREKEQFRKLFIGGLSFETTEESLRNYYEQWGKLTDCVVMRDPASKRSRGFGFVTFSSMAEVDAAMAARPHSIDGRVVEPKRAVAREESGKPGAHVTVKKLFVGGIKEDTEEHHLRDYFEEYGKIDTIEIITDRQSGKKRGFGFVTFDDHDPVDKIVLQKYHTINGHNAEVRKALSRQEMQEVQSSRSGRGGNFGFGDSRGGGGNFGPGPGSNFRGGSDGYGSGRGFGDGYNGYGGGPGGGNFGGSPGYGGGRGGYGGGGPGYGNQGGGYGGGYDNYGGGNYGSGNYNDFGNYNQQPSNYGPMKSGNFGGSRNMGGPYGGGNYGPGGSGGSGGYGGRSRY [HNRNPA2B1]”, the values for the melting temperature in the data set with HeLa Kyoto [1] (cell cycle stage: G1/S) and with HeLa Kyoto [1] (cell cycle stage: mitosis) were 48.1 °C and 49 °C, respectively. The thermal stability score with HeLa Kyoto [2] (setting [5]) was determined as 5.29; with HeLa Kyoto [2] (cell cycle stage: mitosis), 6.68. For the same sequence, the “solubility in G1/S (log2)” value with HeLa Kyoto [3] is -0.087. In addition, the “solubility change mitosis (log2)” value with HeLa Kyoto [4] is 0.321.
As for “MEKTQETVQRILLEPYKYLLQLPGKQVRTKLSQAFNHWLKVPEDKLQIIIEVTEMLHNASLLIDDIEDNSKLRRGFPVAHSIYGIPSVINSANYVYFLGLEKVLTLDHPDAVKLFTRQLLELHQGQGLDIYWRDNYTCPTEEEYKAMVLQKTGGLFGLAVGLMQLFSDYKEDLKPLLNTLGLFFQIRDDYANLHSKEYSENKSFCEDLTEGKFSFPTIHAIWSRPESTQVQNILRQRTENIDIKKYCVHYLEDVGSFEYTRNTLKELEAKAYKQIDARGGNPELVALVKHLSKMFKEENE [GGPS1]”, the melting temperature with HeLa Kyoto [1] (cell cycle stage: G1/S) was 55.2 °C; in the data set on HeLa Kyoto [1] (cell cycle stage: mitosis), 56 °C. For the same sequence, the thermal stability score was -1.73 with HeLa Kyoto [2] (setting [5]) and -1.98 with HeLa Kyoto [2] (cell cycle stage: mitosis). In the data set with HeLa Kyoto [3], the “solubility in G1/S (log2)” value was determined as 0.163. Further, in the data set on HeLa Kyoto [4], the “solubility change mitosis (log2)” value is -0.0913.
On to “MELEDGVVYQEEPGGSGAVMSERVSGLAGSIYREFERLIGRYDEEVVKELMPLVVAVLENLDSVFAQDQEHQVELELLRDDNEQLITQYEREKALRKHAEEKFIEFEDSQEQEKKDLQTRVESLESQTRQLELKAKNYADQISRLEEREAELKKEYNALHQRHTEMIHNYMEHLERTKLHQLSGSDQLESTAHSRIRKERPISLGIFPLPAGDGLLTPDAQKGGETPGSEQWKFQELSQPRSHTSLKVSNSPEPQKAVEQEDELSDVSQGGSKATTPASTANSDVATIPTDTPLKEENEGFVKVTDAPNKSEISKHIEVQVAQETRNVSTGSAENEEKSEVQAIIESTPELDMDKDLSGYKGSSTPTKGIENKAFDRNTESLFEELSSAGSGLIGDVDEGADLLGMGREVENLILENTQLLETKNALNIVKNDLIAKVDELTCEKDVLQGELEAVKQAKLKLEEKNRELEEELRKARAEAEDARQKAKDDDDSDIPTAQRKRFTRVEMARVLMERNQYKERLMELQEAVRWTEMIRASRENPAMQEKKRSSIWQFFSRLFSSSSNTTKKPEPPVNLKYNAPTSHVTPSVKKRSSTLSQLPGDKSKAFDFLSEETEASLASRREQKREQYRQVKAHVQKEDGRVQAFGWSLPQKYKQVTNGQGENKMKNLPVPVYLRPLDEKDTSMKLWCAVGVNLSGGKTRDGGSVVGASVFYKDVAGLDTEGSKQRSASQSSLDKLDQELKEQQKELKNQEELSSLVWICTSTHSATKVLIIDAVQPGNILDSFTVCNSHVLCIASVPGARETDYPAGEDLSESGQVDKASLCGSMTSNSSAETDSLLGGITVVGCSAEGVTGAATSPSTNGASPVMDKPPEMEAENSEVDENVPTAEEATEATEGNAGSAEDTVDISQTGVYTEHVFTDPLGVQIPEDLSPVYQSSNDSDAYKDQISVLPNEQDLVREEAQKMSSLLPTMWLGAQNGCLYVHSSVAQWRKCLHSIKLKDSILSIVHVKGIVLVALADGTLAIFHRGVDGQWDLSNYHLLDLGRPHHSIRCMTVVHDKVWCGYRNKIYVVQPKAMKIEKSFDAHPRKESQVRQLAWVGDGVWVSIRLDSTLRLYHAHTYQHLQDVDIEPYVSKMLGTGKLGFSFVRITALMVSCNRLWVGTGNGVIISIPLTETNKTSGVPGNRPGSVIRVYGDENSDKVTPGTFIPYCSMAHAQLCFHGHRDAVKFFVAVPGQVISPQSSSSGTDLTGDKAGPSAQEPGSQTPLKSMLVISGGEGYIDFRMGDEGGESELLGEDLPLEPSVTKAERSHLIVWQVMYGNE [SPAG9]”, for which the melting temperature in the data set with HeLa Kyoto [1] (cell cycle stage: G1/S) is 51.3 °C; in the data set on HeLa Kyoto [1] (cell cycle stage: mitosis) it was 50.6 °C. Further, the results for the thermal stability score in the data set on HeLa Kyoto [2] (setting [5]) and with HeLa Kyoto [2] (cell cycle stage: mitosis) were 0.672 and 0.413, respectively. In addition, the “solubility in G1/S (log2)” value in the data set with HeLa Kyoto [3] is 0.00549. Moreover, the “solubility change mitosis (log2)” value with HeLa Kyoto [4] was -0.168.
On to “MELPSGPGPERLFDSHRLPGDCFLLLVLLLYAPVGFCLLVLRLFLGIHVFLVSCALPDSVLRRFVVRTMCAVLGLVARQEDSGLRDHSVRVLISNHVTPFDHNIVNLLTTCSTPLLNSPPSFVCWSRGFMEMNGRGELVESLKRFCASTRLPPTPLLLFPEEEATNGREGLLRFSSWPFSIQDVVQPLTLQVQRPLVSVTVSDASWVSELLWSLFVPFTVYQVRWLRPVHRQLGEANEEFALRVQQLVAKELGQTGTRLTPADKAEHMKRQRHPRLRPQSAQSSFPPSPGPSPDVQLATLAQRVKEVLPHVPLGVIQRDLAKTGCVDLTITNLLEGAVAFMPEDITKGTQSLPTASASKFPSSGPVTPQPTALTFAKSSWARQESLQERKQALYEYARRRFTERRAQEAD [AUP1]”, for which the values for the melting temperature in the data set with HeLa Kyoto [1] (cell cycle stage: G1/S) and in the data set on HeLa Kyoto [1] (cell cycle stage: mitosis) were 50.9 °C and 50.6 °C, respectively. In addition, the thermal stability score with HeLa Kyoto [2] (setting [5]) is 0.525; in the data set on HeLa Kyoto [2] (cell cycle stage: mitosis), 0.836. In the data set with HeLa Kyoto [3], the “solubility in G1/S (log2)” value is -0.262. Further, the “solubility change mitosis (log2)” value in the data set on HeLa Kyoto [4] is -0.102.
On to “MELSQMSELMGLSVLLGLLALMATAAVARGWLRAGEERSGRPACQKANGFPPDKSSGSKKQKQYQRIRKEKPQQHNFTHRLLAAALKSHSGNISCMDFSSNGKYLATCADDRTIRIWSTKDFLQREHRSMRANVELDHATLVRFSPDCRAFIVWLANGDTLRVFKMTKREDGGYTFTATPEDFPKKHKAPVIDIGIANTGKFIMTASSDTTVLIWSLKGQVLSTINTNQMNNTHAAVSPCGRFVASCGFTPDVKVWEVCFGKKGEFQEVVRAFELKGHSAAVHSFAFSNDSRRMASVSKDGTWKLWDTDVEYKKKQDPYLLKTGRFEEAAGAAPCRLALSPNAQVLALASGSSIHLYNTRRGEKEECFERVHGECIANLSFDITGRFLASCGDRAVRLFHNTPGHRAMVEEMQGHLKRASNESTRQRLQQQLTQAQETLKSLGALKK [TBL2]”, for which the results for the melting temperature in the data set with HeLa Kyoto [1] (cell cycle stage: G1/S) and with HeLa Kyoto [1] (cell cycle stage: mitosis) were 51 °C and 50.4 °C, respectively. The thermal stability score was 0.379 in the data set on HeLa Kyoto [2] (setting [5]) and -0.532 with HeLa Kyoto [2] (cell cycle stage: mitosis). For the same sequence, in the data set with HeLa Kyoto [3], the “solubility in G1/S (log2)” value was -0.571. Moreover, the “solubility change mitosis (log2)” value in the data set on HeLa Kyoto [4] is 0.307.
In the case of “MELTIFILRLAIYILTFPLYLLNFLGLWSWICKKWFPYFLVRFTVIYNEQMASKKRELFSNLQEFAGPSGKLSLLEVGCGTGANFKFYPPGCRVTCIDPNPNFEKFLIKSIAENRHLQFERFVVAAGENMHQVADGSVDVVVCTLVLCSVKNQERILREVCRVLRPGGAFYFMEHVAAECSTWNYFWQQVLDPAWHLLFDGCNLTRESWKALERASFSKLKLQHIQAPLSWELVRPHIYGYAVK [METTL7A]”, the melting temperature in the data set with HeLa Kyoto [1] (cell cycle stage: G1/S) was determined as 57.6 °C; in the data set on HeLa Kyoto [1] (cell cycle stage: mitosis), 56.8 °C. In addition, the thermal stability score in the data set with HeLa Kyoto [2] (setting [5]) was 0.77; with HeLa Kyoto [2] (cell cycle stage: mitosis), -0.471. For the same sequence, the “solubility in G1/S (log2)” value with HeLa Kyoto [3] is -0.294. Also, in the data set on HeLa Kyoto [4], the “solubility change mitosis (log2)” value was -0.0939.
With “MEMGRRIHLELRNRTPSDVKELVLDNSRSNEGKLEGLTDEFEELEFLSTINVGLTSIANLPKLNKLKKLELSDNRVSGGLEVLAEKCPNLTHLNLSGNKIKDLSTIEPLKKLENLKSLDLFNCEVTNLNDYRENVFKLLPQLTYLDGYDRDDKEAPDSDAEGYVEGLDDEEEDEDEEEYDEDAQVVEDEEDEDEEEEGEEEDVSGEEEEDEEGYNDGEVDDEEDEEELGEEERGQKRKREPEDEGEDDD [ANP32A]”, the melting temperature in the data set on HeLa Kyoto [1] (cell cycle stage: G1/S) stood at 52.3 °C; with HeLa Kyoto [1] (cell cycle stage: mitosis), 53.2 °C. Also, the thermal stability score worked out at 0.819 in the data set on HeLa Kyoto [2] (setting [5]) and 2.54 in the data set with HeLa Kyoto [2] (cell cycle stage: mitosis). Besides, the “solubility in G1/S (log2)” value with HeLa Kyoto [3] is -0.297. Besides, the “solubility change mitosis (log2)” value in the data set on HeLa Kyoto [4] is 0.466.
